*1 amine or outer side, *2 acyl side, *3 side chain or, on linkers, in order; H or OH if unused. Where no end group is shown, it is not given here. Side-chain parts run from the residue outwards. [ ]: non-standard residue; d: D form. The star is where a group is joined. C18 diacid = O=C(O)CCCCCCCCCCCCCCCCC(=O)*; γGlu = O=C(O)[C@H](CCC(=O)[*:2])N[*:1]; NMeI = CC[C@H](C)[C@H](NC)C(=O)O; Api = NC1(C(=O)O)CCNCC1; Abu = CC[C@H](N)C(=O)O; Dap = NC[C@H](N)C(=O)O; AEEA = NCCOCCOCC(=O)O
T1: CRF1R receptor (UniProt P34998 24-415, limits assumed)
T1 sequence (looked up): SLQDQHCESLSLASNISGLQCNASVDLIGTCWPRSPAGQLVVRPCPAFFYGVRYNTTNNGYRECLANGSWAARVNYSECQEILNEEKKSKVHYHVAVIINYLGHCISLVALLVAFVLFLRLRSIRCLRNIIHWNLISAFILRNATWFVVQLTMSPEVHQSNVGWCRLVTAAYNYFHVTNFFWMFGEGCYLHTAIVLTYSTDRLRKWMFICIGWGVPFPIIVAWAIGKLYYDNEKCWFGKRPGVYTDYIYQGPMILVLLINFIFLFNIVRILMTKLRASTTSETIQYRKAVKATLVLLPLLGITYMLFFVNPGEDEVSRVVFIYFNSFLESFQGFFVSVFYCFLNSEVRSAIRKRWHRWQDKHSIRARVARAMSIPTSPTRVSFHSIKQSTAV


Columns and labels:
[1] = molecular target: human corticotropin-releasing factor 2a (CRF2a receptor) (human), Q13324; test: cell-based or functional assay
CRF1R receptor = molecular target: T1, CRF1R receptor; test: cell-based or functional assay

human corticotropin-releasing factor 2a (CRF2a receptor) (human), Q13324, sequence (Q13324 20-411): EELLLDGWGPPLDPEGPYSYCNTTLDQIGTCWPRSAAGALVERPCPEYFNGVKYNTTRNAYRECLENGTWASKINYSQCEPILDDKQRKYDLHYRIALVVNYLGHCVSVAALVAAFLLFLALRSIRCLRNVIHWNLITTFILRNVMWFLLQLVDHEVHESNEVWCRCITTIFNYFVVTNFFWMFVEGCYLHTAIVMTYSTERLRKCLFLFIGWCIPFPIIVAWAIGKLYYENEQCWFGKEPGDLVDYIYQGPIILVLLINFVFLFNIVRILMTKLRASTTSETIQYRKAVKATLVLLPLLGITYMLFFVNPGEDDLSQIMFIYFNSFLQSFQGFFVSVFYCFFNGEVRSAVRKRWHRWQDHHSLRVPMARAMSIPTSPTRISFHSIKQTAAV

Row | EC50 [nM] (cAMP) [1] | Emax (% I) (CRF1R receptor) [%] | Binder
1 | 0.05 | 13 | [NMeI]VLSLD[dV]PIKLK([γGlu-C18 diacid])KILLEQEKQKKQREQAETN[Abu]QILAQV-NH2 (N-terminus assumed; SMILES CC[C@H](NC(=O)[C@H](CC(N)=O)NC(=O)[C@@H](NC(=O)[C@H](CCC(=O)O)NC(=O)[C@H](C)NC(=O)[C@H](CCC(N)=O)NC(=O)[C@H](CCC(=O)O)NC(=O)[C@H](CCCNC(=N)N)NC(=O)[C@H](CCC(N)=O)NC(=O)[C@H](CCCCN)NC(=O)[C@H](CCCCN)NC(=O)[C@H](CCC(N)=O)NC(=O)[C@H](CCCCN)NC(=O)[C@H](CCC(=O)O)NC(=O)[C@H](CCC(N)=O)NC(=O)[C@H](CCC(=O)O)NC(=O)[C@H](CC(C)C)NC(=O)[C@H](CC(C)C)NC(=O)[C@@H](NC(=O)[C@H](CCCCN)NC(=O)[C@H](CCCCNC(=O)CC[C@H](NC(=O)CCCCCCCCCCCCCCCCC(=O)O)C(=O)O)NC(=O)[C@H](CC(C)C)NC(=O)[C@H](CCCCN)NC(=O)[C@@H](NC(=O)[C@@H]1CCCN1C(=O)[C@H](NC(=O)[C@H](CC(=O)O)NC(=O)[C@H](CC(C)C)NC(=O)[C@H](CO)NC(=O)[C@H](CC(C)C)NC(=O)[C@@H](NC(=O)[C@@H](NC)[C@@H](C)CC)C(C)C)C(C)C)[C@@H](C)CC)[C@@H](C)CC)[C@@H](C)O)C(=O)N[C@@H](CCC(N)=O)C(=O)N[C@H](C(=O)N[C@@H](CC(C)C)C(=O)N[C@@H](C)C(=O)N[C@@H](CCC(N)=O)C(=O)N[C@H](C(N)=O)C(C)C)[C@@H](C)CC) [SEQ ID NO 139]
2 | 0.17 | 14 | [NMeI]VLSLD[dV]PIKLK([γGlu-C18 diacid])KILLEQEKQKKQREQAETN[Dap]QILAQV-NH2 (N-terminus assumed; SMILES CC[C@H](C)[C@H](NC)C(=O)N[C@H](C(=O)N[C@@H](CC(C)C)C(=O)N[C@@H](CO)C(=O)N[C@@H](CC(C)C)C(=O)N[C@@H](CC(=O)O)C(=O)N[C@@H](C(=O)N1CCC[C@H]1C(=O)N[C@H](C(=O)N[C@@H](CCCCN)C(=O)N[C@@H](CC(C)C)C(=O)N[C@@H](CCCCNC(=O)CC[C@H](NC(=O)CCCCCCCCCCCCCCCCC(=O)O)C(=O)O)C(=O)N[C@@H](CCCCN)C(=O)N[C@H](C(=O)N[C@@H](CC(C)C)C(=O)N[C@@H](CC(C)C)C(=O)N[C@@H](CCC(=O)O)C(=O)N[C@@H](CCC(N)=O)C(=O)N[C@@H](CCC(=O)O)C(=O)N[C@@H](CCCCN)C(=O)N[C@@H](CCC(N)=O)C(=O)N[C@@H](CCCCN)C(=O)N[C@@H](CCCCN)C(=O)N[C@@H](CCC(N)=O)C(=O)N[C@@H](CCCNC(=N)N)C(=O)N[C@@H](CCC(=O)O)C(=O)N[C@@H](CCC(N)=O)C(=O)N[C@@H](C)C(=O)N[C@@H](CCC(=O)O)C(=O)N[C@H](C(=O)N[C@@H](CC(N)=O)C(=O)N[C@@H](CN)C(=O)N[C@@H](CCC(N)=O)C(=O)N[C@H](C(=O)N[C@@H](CC(C)C)C(=O)N[C@@H](C)C(=O)N[C@@H](CCC(N)=O)C(=O)N[C@H](C(N)=O)C(C)C)[C@@H](C)CC)[C@@H](C)O)[C@@H](C)CC)[C@@H](C)CC)C(C)C)C(C)C) [SEQ ID NO 140]
3 | 0.05 | 10 | [NMeI]VLSLD[dV]PIKLK([γGlu-C18 diacid])KILLEQEKQKKQREQAETNAQILAQV-NH2 (N-terminus assumed; SMILES CC[C@H](C)[C@H](NC)C(=O)N[C@H](C(=O)N[C@@H](CC(C)C)C(=O)N[C@@H](CO)C(=O)N[C@@H](CC(C)C)C(=O)N[C@@H](CC(=O)O)C(=O)N[C@@H](C(=O)N1CCC[C@H]1C(=O)N[C@H](C(=O)N[C@@H](CCCCN)C(=O)N[C@@H](CC(C)C)C(=O)N[C@@H](CCCCNC(=O)CC[C@H](NC(=O)CCCCCCCCCCCCCCCCC(=O)O)C(=O)O)C(=O)N[C@@H](CCCCN)C(=O)N[C@H](C(=O)N[C@@H](CC(C)C)C(=O)N[C@@H](CC(C)C)C(=O)N[C@@H](CCC(=O)O)C(=O)N[C@@H](CCC(N)=O)C(=O)N[C@@H](CCC(=O)O)C(=O)N[C@@H](CCCCN)C(=O)N[C@@H](CCC(N)=O)C(=O)N[C@@H](CCCCN)C(=O)N[C@@H](CCCCN)C(=O)N[C@@H](CCC(N)=O)C(=O)N[C@@H](CCCNC(=N)N)C(=O)N[C@@H](CCC(=O)O)C(=O)N[C@@H](CCC(N)=O)C(=O)N[C@@H](C)C(=O)N[C@@H](CCC(=O)O)C(=O)N[C@H](C(=O)N[C@@H](CC(N)=O)C(=O)N[C@@H](C)C(=O)N[C@@H](CCC(N)=O)C(=O)N[C@H](C(=O)N[C@@H](CC(C)C)C(=O)N[C@@H](C)C(=O)N[C@@H](CCC(N)=O)C(=O)N[C@H](C(N)=O)C(C)C)[C@@H](C)CC)[C@@H](C)O)[C@@H](C)CC)[C@@H](C)CC)C(C)C)C(C)C) [SEQ ID NO 138]
4 | 0.63 | 3 | [NMeI]VLSLD[dV]PIKLK([AEEA-AEEA-γGlu-C18 diacid])KILLEQEKQKKQREQAETN[Api]QILAQV-NH2 (N-terminus assumed; SMILES CC[C@H](C)[C@H](NC)C(=O)N[C@H](C(=O)N[C@@H](CC(C)C)C(=O)N[C@@H](CO)C(=O)N[C@@H](CC(C)C)C(=O)N[C@@H](CC(=O)O)C(=O)N[C@@H](C(=O)N1CCC[C@H]1C(=O)N[C@H](C(=O)N[C@@H](CCCCN)C(=O)N[C@@H](CC(C)C)C(=O)N[C@@H](CCCCNC(=O)COCCOCCNC(=O)COCCOCCNC(=O)CC[C@H](NC(=O)CCCCCCCCCCCCCCCCC(=O)O)C(=O)O)C(=O)N[C@@H](CCCCN)C(=O)N[C@H](C(=O)N[C@@H](CC(C)C)C(=O)N[C@@H](CC(C)C)C(=O)N[C@@H](CCC(=O)O)C(=O)N[C@@H](CCC(N)=O)C(=O)N[C@@H](CCC(=O)O)C(=O)N[C@@H](CCCCN)C(=O)N[C@@H](CCC(N)=O)C(=O)N[C@@H](CCCCN)C(=O)N[C@@H](CCCCN)C(=O)N[C@@H](CCC(N)=O)C(=O)N[C@@H](CCCNC(=N)N)C(=O)N[C@@H](CCC(=O)O)C(=O)N[C@@H](CCC(N)=O)C(=O)N[C@@H](C)C(=O)N[C@@H](CCC(=O)O)C(=O)N[C@H](C(=O)N[C@@H](CC(N)=O)C(=O)NC1(C(=O)N[C@@H](CCC(N)=O)C(=O)N[C@H](C(=O)N[C@@H](CC(C)C)C(=O)N[C@@H](C)C(=O)N[C@@H](CCC(N)=O)C(=O)N[C@H](C(N)=O)C(C)C)[C@@H](C)CC)CCNCC1)[C@@H](C)O)[C@@H](C)CC)[C@@H](C)CC)C(C)C)C(C)C) [SEQ ID NO 117]
